In PMC2953525, “Subtle Alterations in PCNA-Partner Interactions Severely Impair DNA Replication and Repair” (PLoS Biology, 2010):
Where no end group is shown, it is not given here.

T1: pol30-Ung1E3, 6×Histidine-tagged (yeast, UniProt P15873 1-258, IDCL DIDADFLKIEEL to DFDYDELKIEEL)
T1 construct: PCNA (POL30), yeast, in pET28; source: E. coli BL21, in cleared crude lysate (ELISA); purified by Ni-NTA (SPR)
T1 sequence: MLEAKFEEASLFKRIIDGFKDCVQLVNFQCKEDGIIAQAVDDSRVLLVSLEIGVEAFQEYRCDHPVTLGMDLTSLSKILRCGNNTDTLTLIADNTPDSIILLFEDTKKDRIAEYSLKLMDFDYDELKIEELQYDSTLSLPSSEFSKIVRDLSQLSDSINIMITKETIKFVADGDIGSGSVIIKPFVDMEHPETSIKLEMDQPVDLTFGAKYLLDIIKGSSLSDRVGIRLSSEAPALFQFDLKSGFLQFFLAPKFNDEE

T2: pol30-Msh6E6, 6×Histidine-tagged (yeast, UniProt P15873 1-258, IDCL DIDADFLKIEEL to DYDKDLLKIIEL)
T2 construct: PCNA (POL30), yeast, in pET28; source: E. coli BL21, in cleared crude lysate (ELISA); purified by Ni-NTA (SPR)
T2 sequence: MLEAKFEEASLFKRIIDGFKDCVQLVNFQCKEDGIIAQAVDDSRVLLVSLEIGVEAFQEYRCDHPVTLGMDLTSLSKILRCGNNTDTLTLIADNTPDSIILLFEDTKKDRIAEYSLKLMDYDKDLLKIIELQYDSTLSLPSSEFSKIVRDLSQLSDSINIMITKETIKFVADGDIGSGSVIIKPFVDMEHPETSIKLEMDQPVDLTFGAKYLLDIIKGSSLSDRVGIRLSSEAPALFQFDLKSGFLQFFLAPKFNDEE


Assays:
[1] = target: T1, pol30-Ung1E3, 6×Histidine-tagged; assay: SPR; ProteOn XPR36; WT or mutant PCNA (0.4 to 5.2 fmol) immobilised on a GLM chip by carbodiimide-activated succinimide coupling; PIP peptides 5–5,000 nM at 30 µl/min; peptide buffer 150 mM NaCl, 1 mM EDTA, 0.01% Tween-80, 30 mM Hepes, pH 7.5; details: both partners purified
[2] = target: T2, pol30-Msh6E6, 6×Histidine-tagged; assay: as above; details: both partners purified

fold increase in binding affinity relative to WT PCNA (SPR) [1] [fold]	fold increase in binding affinity relative to WT PCNA (SPR) [2] [fold]	Binder
3.5	–	QTTIEDFF (also: biotinylated, site not given here) [PIP peptide derived from Ung1]
–	1.6	QSSLLSFF (also: biotinylated, site not given here) [PIP peptide derived from Msh6]
